{"source": "patent US20260217864A1", "about": "(JANUX THERAPEUTICS, published 2026)", "binders": {"B1": {"name": "TCE-4 (bispecific antibody)", "light": "not shown", "heavy": "EVQLVESGGGLVQPGGSLRLSCAASGFSITSDYAWNWVRQAPGKGLEWVGYISNSGSISYNPSLKSRFTISRDNSKNTLYLQMNSLRAEDTAVYYCARERNYDYDDYYYAMDYWGQGTLVTVSSASTKGPSVFPLAPSSKSTSGGTAALGCLVKDYFPEPVTVSWNSGALTSGVHTFPAVLQSSGLYSLSSVVTVPSSSLGTQTYICNVNHKPSNTKVDKKVEPKSC"}, "B2": {"name": "TCE-26 (bispecific antibody)", "light": "not shown", "heavy": "B1 heavy with A24V, F27Y, I58T, N74T"}, "B3": {"name": "TCE-79 (bispecific antibody)", "light": "not shown", "heavy": "B1 heavy with A24V, F27Y, I58T, N74T"}, "B4": {"name": "TCE-80 (bispecific antibody)", "light": "not shown", "heavy": "B1 heavy with A24V, F27Y, I58T, N74T"}, "B5": {"name": "TCE-81 (bispecific antibody)", "light": "not shown", "heavy": "B1 heavy with A24V, F27Y, I58T, N74T"}, "B6": {"name": "TCE-82 (bispecific antibody)", "light": "not shown", "heavy": "B1 heavy with A24V, F27Y, I58T, N74T"}, "B7": {"name": "TCE-83 (bispecific antibody)", "light": "not shown", "heavy": "B1 heavy with A24V, F27Y, I58T, N74T"}, "B8": {"name": "TCE-84 (bispecific antibody)", "light": "not shown", "heavy": "B1 heavy with A24V, F27Y, I58T, N74T"}, "B9": {"name": "TCE-85 (bispecific antibody)", "light": "not shown", "heavy": "B1 heavy with A24V, F27Y, I58T, N74T"}, "B10": {"name": "TCE-86 (bispecific antibody)", "light": "not shown", "heavy": "B1 heavy with A24V, F27Y, I58T, N74T"}, "B11": {"name": "TCE-87 (bispecific antibody)", "light": "not shown", "heavy": "B1 heavy with A24V, F27Y, I58T, N74T"}, "B12": {"name": "TCE-88 (bispecific antibody)", "light": "not shown", "heavy": "B1 heavy with A24V, F27Y, I58T, N74T"}, "B13": {"name": "TCE-89 (bispecific antibody)", "light": "not shown", "heavy": "B1 heavy with A24V, F27Y, I58T, N74T"}, "B14": {"name": "TCE-90 (bispecific antibody)", "light": "not shown", "heavy 1": "EVQLVESGGGLVQPGGSLRLSCAVSGYSITSDYAWNWVRQAPGKGLEWVGYISNSGSTSYNPSLKSRFTISRDTSKNTLYLQMNSLRAEDTAVYYCARERNYDYDDYYYAMDYWGQGTLVTVSSASTKGPSVFPLAPSSKSTSGGTAALGCLVKDYFPEPVTVSWNSGALTSGVHTFPAVLQSSGLYSLSSVVTVPSSSLGTQTYICNVNHKPSNTKVDKKVEPKSCDKTHTCPPCPAPELLGG", "chain": "not shown", "heavy 2": "not shown"}, "B15": {"name": "TCE-93 (bispecific antibody)", "light": "EIVLTQSPATLSLSPGERATLSCRASSSVSYMHWFQQKPGQAPRLLIYSTSNLASGIPARFSGSGSGTDYTLTISSLEPEDFAVYYCQQRRSFPYTFGQGTKLEIKRTVAAPSVFIFPPSDEQLKSGTASVVCLLNNFYPREAKVQWKVDNALQSGNSQESVTEQDSKDSTYSLSSTLTLSKADYEKHKVYACEVTHQGLSSPVTKSFNRGEC", "heavy 1": "QVQLVQSGAEVKKPGASVKVSCKASGYTFSTYWIEWVRQAPGQRLEWMGEILPGSGQTDFNEKFQGRVTFTADTSSDTAYMELSSLRSEDTAVYYCTRWGYYGTRGYFNVWGQGTLVTVSSASTKGPSVFPLAPSSKSTSGGTAALGCLVKDYFPEPVTVSWNSGALTSGVHTFPAVLQSSGLYSLSSVVTVPSSSLGTQTYICNVNHKPSDTKVDKKVEPKSCDKTHTCPPCPAPPVAGPSVFLFPPKPKDTLMISRTPEVTCVVVDVKHEDPEVKFNWYVDGVEVHNAKTKPCEEEYGSTYRCVSVLTVLHQDWLNGKEYKCKVSNKALPAPIEKTISKAKGQPREPQVYTLPPSREEMTKNQVSLTCDVSGFYPSDIAVEWESDGQPENNYKTTPPVLDSDGSFFLYSKLTVDKSRWEQGDVFSCSVMHEALHNHYTQKSLSLSPGK", "heavy 2": "QVQLVQSGAEVKKPGASVKVSCKASGYTFSTYWIEWVRQAPGQRLEWMGEILPGSGQTDFNEKFQGRVTFTADTSSDTAYMELSSLRSEDTAVYYCTRWGYYGTRGYFNVWGQGTLVTVSSASTKGPSVFPLAPSSKSTSGGTAALGCLVKDYFPEPVTVSWNSGALTSGVHTFPAVLQSSGLYSLSSVVTVPSSSLGTQTYICNVNHKPSNTKVDKKVEPKSCGGGGSGGGGSEVQLVESGGGLVQPGGSLRLSCAASGFTFSTYAMNWVRQAPGKGLEWVGRIRSKYNNYATYYADSVKGRFTISRDDSKNTLYLQMNSLRAEDTAVYYCVRHGNFGDSYVSWFAYWGQGTLVTVSSGKPGSGKPGSGKPGSGKPGSQAVVTQEPSLTVSPGGTVTLTCGSSTGAVTTSNYANWVQQKPGKSPRGLIGGTNKRAPGVPARFSGSLLGGKAALTISGAQPEDEADYYCALWYSNHWVFGGGTKLTVLGGGGSGGGGSKTHTCPPCPAPPVAGPSVFLFPPKPKDTLMISRTPEVTCVVVDVKHEDPEVKFNWYVDGVEVHNAKTKPCEEQYGSTYRCVSVLTVLHQDWLNGKEYKCKVSNKALPAPIEKTISKAKGQPREPQVYTLPPSREQMTKNQVKLTCLVKGFYPSDIAVEWESNGQPENNYKTTPPVLDSDGSFFLYSKLTVDKSRWQQGNVFSCSVMHEALHNHYTQKSLSLSPGK"}, "B16": {"name": "TCE-55 (bispecific antibody)", "light": "not shown", "heavy": "B1 heavy with A24V, F27Y, I58T, N74T"}, "B17": {"name": "TCE-58 (bispecific antibody)", "light": "not shown", "heavy": "B1 heavy with A24V, F27Y, I58T, N74T"}, "B18": {"name": "TCE-69 (bispecific antibody)", "light": "DIQMTQSPSSLSASVGDRVTITCKSSQSLLYRSNQKNYLAWYQQKPGKAPKLLIYWASTRESGVPSRFSGSGSGTDFTLTISSLQPEDFATYYCQQYYNYPRTFGQGTKVEIKRTVAAPSVFIFPPSDRKLKSGTASVVCLLNNFYPREAKVQWKVDNALQSGNSQESVTEQDSKDSTYSLSSTLTLSKADYEKHKVYACEVTHQGLSSPVTKSFNRGEC", "chain": "not shown", "heavy": "not shown"}, "B19": {"name": "TCE-75 (bispecific antibody)", "light": "B15 light", "heavy": "not shown"}, "B20": {"name": "TCE-76 (bispecific antibody)", "light": "not shown", "heavy": "QVQLVQSGAEVKKPGASVKVSCKASGYTFSTYWIEWVRQAPGQRLEWMGEILPGSGQTDFNEKFQGRVTFTADTSSDTAYMELSSLRSEDTAVYYCTRWGYYGTRGYFNVWGQGTLVTVSSASTKGPSVFPLAPSSKSTSGGTAALGCLVKDYFPEPVTVSWNSGALTSGVHTFPAVLQSSGLYSLSSVVTVPSSSLGTQTYICNVNHKPSNTKVDKKVEPKSC"}}, "note": "Substitutions are numbered along the chain they refer to.", "data": [{"target": "T1, six-transmembrane epithelial antigen of the prostate-1 (STEAP-1) (UniProt Q9UHE8 1-339, limits assumed)", "T1 sequence (Q9UHE8 whole entry)": "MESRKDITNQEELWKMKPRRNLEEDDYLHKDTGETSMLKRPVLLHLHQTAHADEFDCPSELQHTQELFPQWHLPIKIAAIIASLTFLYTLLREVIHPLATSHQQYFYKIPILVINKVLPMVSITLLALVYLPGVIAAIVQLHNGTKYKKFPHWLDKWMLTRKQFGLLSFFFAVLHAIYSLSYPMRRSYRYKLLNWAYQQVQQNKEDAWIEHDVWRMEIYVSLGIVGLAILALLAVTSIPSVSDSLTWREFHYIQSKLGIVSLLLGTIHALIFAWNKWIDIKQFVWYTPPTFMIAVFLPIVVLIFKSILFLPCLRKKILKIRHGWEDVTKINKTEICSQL", "experiment": "cell-based or functional assay", "units": {"IC50 (pM), 22Rv1 tumor cell killing in the presence of CD8+ T cells": "pM"}, "values": [{"binder": "B1", "IC50 (pM), 22Rv1 tumor cell killing in the presence of CD8+ T cells": "> 10000"}]}, {"target": "T1, six-transmembrane epithelial antigen of …", "experiment": "cell-based or functional assay", "remark": "another data set of the same source", "units": {"Cell line cytotoxicity EC50 (pM), 22RV1": "pM", "Cell line cytotoxicity EC50 (pM), A673": "pM", "Cell line cytotoxicity EC50 (pM), C4-2B": "pM", "Cell line cytotoxicity EC50 (pM), IM-95": "pM", "Cell line cytotoxicity EC50 (pM), LNCaP": "pM", "Cell line cytotoxicity EC50 (pM), VCaP": "pM"}, "values": [{"binder": "B2", "Cell line cytotoxicity EC50 (pM), 22RV1": 2100, "Cell line cytotoxicity EC50 (pM), A673": 45.8, "Cell line cytotoxicity EC50 (pM), C4-2B": 1150, "Cell line cytotoxicity EC50 (pM), IM-95": 147, "Cell line cytotoxicity EC50 (pM), LNCaP": 585}, {"binder": "B3", "Cell line cytotoxicity EC50 (pM), LNCaP": 163}, {"binder": "B4", "Cell line cytotoxicity EC50 (pM), LNCaP": 260}, {"binder": "B5", "Cell line cytotoxicity EC50 (pM), LNCaP": 239}, {"binder": "B6", "Cell line cytotoxicity EC50 (pM), LNCaP": 214}, {"binder": "B7", "Cell line cytotoxicity EC50 (pM), LNCaP": 209}, {"binder": "B8", "Cell line cytotoxicity EC50 (pM), LNCaP": 192}, {"binder": "B9", "Cell line cytotoxicity EC50 (pM), LNCaP": 360}, {"binder": "B10", "Cell line cytotoxicity EC50 (pM), LNCaP": 232}, {"binder": "B11", "Cell line cytotoxicity EC50 (pM), LNCaP": 235}, {"binder": "B12", "Cell line cytotoxicity EC50 (pM), LNCaP": 183}, {"binder": "B13", "Cell line cytotoxicity EC50 (pM), LNCaP": 123}, {"binder": "B14", "Cell line cytotoxicity EC50 (pM), 22RV1": 171, "Cell line cytotoxicity EC50 (pM), A673": 17.3, "Cell line cytotoxicity EC50 (pM), IM-95": 11.6, "Cell line cytotoxicity EC50 (pM), LNCaP": 68.5}, {"binder": "B15", "Cell line cytotoxicity EC50 (pM), 22RV1": 23.2, "Cell line cytotoxicity EC50 (pM), A673": 0.9, "Cell line cytotoxicity EC50 (pM), C4-2B": 0.4, "Cell line cytotoxicity EC50 (pM), IM-95": 3.6, "Cell line cytotoxicity EC50 (pM), LNCaP": 0.2, "Cell line cytotoxicity EC50 (pM), VCaP": 1.2}]}, {"target": "T1, six-transmembrane epithelial antigen of …", "experiment": "cell-based or functional assay", "remark": "another data set of the same source", "units": {"Cell line cytotoxicity EC50 (pM), 22RV1": "pM", "Cell line cytotoxicity EC50 (pM), IM-95": "pM", "Cell line cytotoxicity EC50 (pM), LNCaP": "pM", "Cell line cytotoxicity EC50 (pM), VCaP": "pM"}, "values": [{"binder": "B1", "Cell line cytotoxicity EC50 (pM), 22RV1": "> 10000", "Cell line cytotoxicity EC50 (pM), IM-95": 648, "Cell line cytotoxicity EC50 (pM), LNCaP": 2220, "Cell line cytotoxicity EC50 (pM), VCaP": "> 10000"}, {"binder": "B16", "Cell line cytotoxicity EC50 (pM), LNCaP": 1310}, {"binder": "B17", "Cell line cytotoxicity EC50 (pM), 22RV1": 332, "Cell line cytotoxicity EC50 (pM), LNCaP": 44.5}, {"binder": "B18", "Cell line cytotoxicity EC50 (pM), 22RV1": 359, "Cell line cytotoxicity EC50 (pM), IM-95": 11.2, "Cell line cytotoxicity EC50 (pM), LNCaP": 89.1}, {"binder": "B19", "Cell line cytotoxicity EC50 (pM), LNCaP": 5.2}, {"binder": "B20", "Cell line cytotoxicity EC50 (pM), LNCaP": 7.9}]}, {"target": "T1, six-transmembrane epithelial antigen of …", "experiment": "cell-based or functional assay", "remark": "another data set of the same source", "units": {"IC50 (pM), LNCaP tumor cell killing in the presence of CD8+ T cells": "pM"}, "values": [{"binder": "B1", "IC50 (pM), LNCaP tumor cell killing in the presence of CD8+ T cells": 1710}]}, {"target": "T1, six-transmembrane epithelial antigen of …", "experiment": "cell-based or functional assay", "remark": "another data set of the same source", "units": {"EC50/pM, LNCaP tumor cell killing": "pM"}, "values": [{"binder": "B2", "EC50/pM, LNCaP tumor cell killing": 585}, {"binder": "B3", "EC50/pM, LNCaP tumor cell killing": 163}, {"binder": "B4", "EC50/pM, LNCaP tumor cell killing": 260}, {"binder": "B5", "EC50/pM, LNCaP tumor cell killing": 239}, {"binder": "B6", "EC50/pM, LNCaP tumor cell killing": 214}, {"binder": "B7", "EC50/pM, LNCaP tumor cell killing": 209}, {"binder": "B8", "EC50/pM, LNCaP tumor cell killing": 192}, {"binder": "B9", "EC50/pM, LNCaP tumor cell killing": 361}, {"binder": "B10", "EC50/pM, LNCaP tumor cell killing": 233}, {"binder": "B11", "EC50/pM, LNCaP tumor cell killing": 235}, {"binder": "B12", "EC50/pM, LNCaP tumor cell killing": 183}, {"binder": "B13", "EC50/pM, LNCaP tumor cell killing": 123}, {"binder": "B16", "EC50/pM, LNCaP tumor cell killing": 1310}, {"binder": "B17", "EC50/pM, LNCaP tumor cell killing": 45}]}, {"target": "T1, six-transmembrane epithelial antigen of …", "experiment": "cell-based or functional assay", "remark": "another data set of the same source", "units": {"IC50 (pM), VCaP tumor cell killing in the presence of CD8+ T cells": "pM"}, "values": [{"binder": "B1", "IC50 (pM), VCaP tumor cell killing in the presence of CD8+ T cells": "> 10000"}]}]}
